Publication PMC6439349

Legend:
[1] = target: TioK-MymaAcA complex (not stated | Mycobacterium marinum); experiment: AUC
[2] = target: TioK; experiment: AUC
[3] = target: TioK-TioT complex (UniProt Q333U6); experiment: AUC
[4] = target: TioK-KtzJ complex (not stated | Kutzneria sp. 744); experiment: AUC
[5] = target: TioK-MbtH complex (not stated | Mycobacterium tuberculosis H37Rv) (UniProt P9WIP4); experiment: […]
[6] = target: TioK-Ecm8 complex (not stated | Streptomyces lasaliensis); experiment: AUC
[7] = target: TioK-MypaAaA complex (not stated | Mycobacterium paratuberculosis); experiment: AUC
[8] = target: TioK-MyavAcA complex (not stated | Mycobacterium avium); experiment: AUC
[9] = target: TioK-MyabAaA complex (not stated | Mycobacterium abscessus); experiment: AUC
[10] = target: TioK; experiment: […]

Row | Molecule | approximate mole fraction of TioK-MLP complex [2] | stoichiometry N [2] [MLP per TioK] | further results
1 | TioK-MymaAcA complex |  |  | stoichiometry N (multiple of MW(1:1)) [1]: 1.94
2 | KtzJ (natural protein) | 0.92 | 1 | 
3 | TioK-TioT complex (from UniProt Q333U6 1-71) |  |  | stoichiometry N (multiple of MW(1:1)) [3]: 1.98
4 | TioK-KtzJ complex |  |  | stoichiometry N (multiple of MW(1:1)) [4]: 1.92
5 | TioK-MbtH complex (from UniProt P9WIP4 1-71) |  |  | stoichiometry N (multiple of MW(1:1)) [5]: 2.06
6 | PA2412 (from UniProt Q9I169 1-72) (natural protein) | 0.87 | 1 | 
7 | TioK-Ecm8 complex |  |  | stoichiometry N (multiple of MW(1:1)) [6]: 1.93
8 | TioK-MypaAaA complex |  |  | stoichiometry N (multiple of MW(1:1)) [7]: 2.05
9 | TioK-MyavAcA complex |  |  | stoichiometry N (multiple of MW(1:1)) [8]: 1.96
10 | TioK-MyabAaA complex |  |  | stoichiometry N (multiple of MW(1:1)) [9]: 1.96
11 | Ecm8 (natural protein) | 0.76 | 1 | 
12 | CouY (natural protein) MATNPFDDENGVYLLLVNDEGQHSLWPSFAALPKGWTVILDEASRQECLDYVNEHWTDMRPLSLQPAMGDE | 0.84 | 1 | 
13 | MbtH (natural protein) MSTNPFDDDNGAFFVLVNDEDQHSLWPVFADIPAGWRVVHGEASRAACLDYVEKNWTDLRPKSLRDAMAED |  |  | approximate mole fraction of TioK-MLP complex [10]: 0.82; stoichiometry N [10]: 1 MLP per TioK
14 | TioT (natural protein) MSVNPFDDEDGEFYVLVNDEEQHSLWPTFGDVPDGWRIVFGPAGRAESVAYVEENWTDMRPKSLREAMSAA | 0.88 | 1 | 
